Target: mCherry-CARACB(G15V) (barley (Hordeum vulgare))
Assay: FRET or BRET

- GFP lifetime: 2.2 ns
Substance: GFP-RIC157 (natural protein)

From paper doi:10.1101/848226
